The results in this text go back to article PMC8852740, “Neutralization of Typhoid Toxin by Alpaca-Derived, Single-Domain Antibodies Targeting the PltB and CdtB Subunits” (Infection and Immunity, 2021).

As usually defined, the Kd is the free concentration of one partner at which half of the binding sites on the other are occupied at equilibrium, for simple one-to-one binding. Read a high Kd as lower affinity. The kon is the second-order rate constant of association. Lower therefore signals slower complex formation. Usually koff stands for the rate constant with which the complex falls apart. Lower therefore signals a long-lived complex.

Conditions in all cases: both partners purified
Experiment [1] concerns the target T1, PltB homopentamer, biotinylated (Salmonella enterica serovar Typhi; …, UniProt Q8Z6A3, biotinylated with EZ-link NHS-Biotin (sites not given)).
T1 construct: also called PltB5; pentameric PltB subunits
Put plainly: ELISA; […] (30 min, 37°C) […]. For orientation: An ELISA detects its analyte on a solid surface through an enzyme-linked reagent.

For experiment [2], the target named is T2, typhoid toxin (A2B5 holotoxin: CdtB, PltA and a PltB homopentamer), biotinylated (Salmonella enterica serovar Typhi; …, UniProt Q8Z6A7;Q8Z6A4;Q8Z6A3).
T2 construct: also called TyT; biotinylated typhoid toxin; not shown: His6, C-terminal, kept; copies: 1 + 1 + 5
Description: BLI; Octet Red96e; […] (2 µg/mL) […]; association 5 min, dissociation 30 min; 25°C; 1:1 model; […]. For orientation: In BLI a coated tip is dipped into the sample, and binding shifts an interference pattern.

Experiment [3] addresses T3, typhoid toxin (A2B5 holotoxin: CdtB, PltA and a PltB homopentamer), biotinylated (Salmonella enterica serovar Typhi; …, UniProt Q8Z6A7;Q8Z6A4;Q8Z6A3).
T3 construct: also called TyT; biotinylated typhoid toxin; not shown: His6, C-terminal, kept; copies: 1 + 1 + 5
Description: ELISA; […] (30 min, 37°C) […].

In experiment [4] the target is T3, typhoid toxin (A2B5 holotoxin: CdtB, …). Put plainly: BLI; Octet Red96e; […] (2 µg/mL) […]; association 5 min, dissociation 30 min; 25°C; 1:1 model; […]. This is another data set of the same source.

Several values for one entry are separate records, joined by “and”; a condition that tells them apart may be missing. Equal entries are not always repeated.

B1: T2F6 (VHH)
VHH: QLQLAESGGGLVQPGGSLRLSCAVSGFMVNSYDIGWFRQAPGKAREGISCINTSGDTPNYADSVKGRFTISRDNAKNMVYLQMNSLKPEDTATYFCAANRMTRCSDYNGYPYWGQGTQVIVSS
notes: also called anti-PltB VHH T2F6; source: E. coli Rosetta-gami 2(DE3)pLacI, pET32b+, purified (Ni-NTA)
B1: the binding result in experiment [1] is “binds”.

B2: T4E8 (VHH)
VHH: QLQLVESGGGLVQAGGSLRLSCAASGMSFSTYTMGWYRQAPGKRRGLVATISSGGSTNYADSVKGRFTISRDNAKDTVYLQMNSLKPEDTAEYYCNVKGDYQTPNMGYWGQGTRVTVSS
notes: also called anti-CdtB VHH T4E8; source: E. coli Rosetta-gami 2(DE3)pLacI, pET32b+, purified (Ni-NTA)
Turning to B2, in experiment [2], the Kd is 2.03 nM and 4.44 nM; the kon was 53300 M⁻¹ s⁻¹ and 73600 M⁻¹ s⁻¹.

B3: T4F3 (VHH)
VHH: QLQLVETGGGLVQPGGSLTLSCAASGFTLNYWHMGWYRQAPGKQRELVATISGHGITNYADSVKGRFTISRDDAKNSVYLQMNSLKPEDTAVYYCNFISRTNDWGQGTQVTVSS
notes: also called anti-CdtB VHH T4F3; source: E. coli Rosetta-gami 2(DE3)pLacI, pET32b+, purified (Ni-NTA)
With B3, the binding result in experiment [3] was “binds”.

B4: T4B5 (VHH)
VHH: QLQLAESGGGLVQPGGSLRLSCAASGSIFSINVMGWYRQVPGKQREWVASITRGGGTLYADSVKGRFTISRDSAKNTVYLQMNSLKPEDTAVYYCNADLMEDSDSDYHEYWGQGTQVTVSS
notes: also called anti-CdtB VHH T4B5; source: E. coli Rosetta-gami 2(DE3)pLacI, pET32b+, purified (Ni-NTA)
As for B4, the binding result in experiment [3] is listed as “binds”.

B5: T2G9 (VHH)
VHH: QVQLVETGGGSVQAGGSLRLSCAASGFTFDDYAIGWFRQAPGKEREMILCINSRGGSTSYYADSVKGRFTVSVNSAKNTAYLQMNSLKPEDTAVYYCAADVTPPHSCNALDAWGQGTLVTVSS
notes: also called anti-PltB VHH T2G9; source: E. coli Rosetta-gami 2(DE3)pLacI, pET32b+, purified (Ni-NTA)
As to B5, in experiment [1], the binding result was “binds”. The kon in experiment [2] is 155000 M⁻¹ s⁻¹ and 139000 M⁻¹ s⁻¹ and 105000 M⁻¹ s⁻¹.

B6: T2E7 (VHH)
VHH: QLQLVESGGGLVQPGGSLRLSCAASGFTLDYYAIGWFRQAPGKERERVSCISGRDGGTYYADSVKGRFAISRDNAQNTVYLQMSRLKPEDTAAYYCAADYADNYCTGSFPPDYWGQGTQVTVSS
notes: also called anti-PltB VHH T2E7; source: E. coli Rosetta-gami 2(DE3)pLacI, pET32b+, purified (Ni-NTA)
Turning to B6, the binding result in experiment [1] is “binds”. Also, in experiment [2], the Kd was 0.629 nM and 0.618 nM and 0.911 nM; the koff was 0.000278 s⁻¹ and 0.000313 s⁻¹ and 0.000369 s⁻¹; the on-rate (kon) was 443000 M⁻¹ s⁻¹ and 507000 M⁻¹ s⁻¹ and 405000 M⁻¹ s⁻¹.

B7: T4E5 (VHH)
VHH: QLQLVETGGGLVQPGGSLKLSCVASGSIFSINVMGWFRQASGKQREVVAQITRGGGTIYADSVKGRFTISRDDAKNSVYLQMNSLNPEDTAVYLCNADLMQGIDSEYEDYWGQGTQVTVSS
notes: also called anti-CdtB VHH T4E5; source: E. coli Rosetta-gami 2(DE3)pLacI, pET32b+, purified (Ni-NTA)
As for B7, the kon in experiment [4] is 424000 M⁻¹ s⁻¹ and 382000 M⁻¹ s⁻¹ and 306000 M⁻¹ s⁻¹.

B8: T4C4 (VHH)
VHH: QVQLAESGGGLVQPGGSLRLSCAASGSIFSINVMGWYRQAPGKQRESVAVITRGGGTMYADSVKGRATISRDSAKNTVYLQMNSLKPEDTAVYYCNADLMQAVDSEYEDYWGQGTQVTVSS
notes: also called anti-CdtB VHH T4C4; source: E. coli Rosetta-gami 2(DE3)pLacI, pET32b+, purified (Ni-NTA)
Consider B8, for which, in experiment [4], the Kd is 0.284 nM and 0.11 nM; the koff was 0.000264 s⁻¹ and 0.00026 s⁻¹; the kon was 929000 M⁻¹ s⁻¹ and 2.36e+06 M⁻¹ s⁻¹.

B9: T4C12 (VHH)
VHH: QVQLAESGGGLVQPGGSLRLSCAASGSIFSINVMGWYRQAPGKQREFVAVITRGGSTDYADSVKGRFTISRDNAKNTVYLQMNSLKPEDTAVYYCNADLMQTSASEYEDCWGQGTQVTVSS
notes: also called anti-CdtB VHH T4C12; source: E. coli Rosetta-gami 2(DE3)pLacI, pET32b+, purified (Ni-NTA)
Turning to B9, in experiment [4], the dissociation constant (Kd) is 2.84 nM and 1.55 nM; the koff was 0.00121 s⁻¹ and 0.00243 s⁻¹.

B10: T4C11 (VHH)
VHH: QLQLVETGGGLVQPGGSLRLSCAASGSIFSINIMGWYRQAPGKQRESVAVITRGGGTMYADSVKGRFTISRDSAKNTVYLQMNSLKPEDTAVYYCNADLMQAVDSEYEDYWGQGTQVTVSS
notes: also called anti-CdtB VHH T4C11; source: E. coli Rosetta-gami 2(DE3)pLacI, pET32b+, purified (Ni-NTA)
On to B10, for which, in experiment [3], the binding result is given as “binds”.
